Laboratory results taken from PMC10643122.

Legend:
[1] = target: full-length LRRK1 (Leucine Rich Repeat Kinase 1) (human) (UniProt Q38SD2); test: cryo-EM structure; 5.2 μM LRRK1(FL) with GDP, 0.06% brij-35 added directly before vitrification; C2 symmetry
[2] = target: full-length LRRK1 (Leucine Rich Repeat Kinase 1) (human) (UniProt Q38SD2); test: mass photometry; full-length LRRK1 diluted to 100 nM in 20 mM HEPES pH 7.4, 150 mM NaCl, 2.5 mM MgCl2, 1 mM GDP, 0.5 mM TCEP, 0.5% glycerol; 30 min at room temperature; Refeyn TwoMP; Gaussian fits of the histograms, law of mass action; dimer to monomers; estimated Kd

stoichiometry N [1]: 2
Kd [2]: 600 nM
Substance: full-length LRRK1 (Leucine Rich Repeat Kinase 1), Q38SD2-1 1-2015
